Data published in patent US20040137592.

Legend:
[1] = biological target: MBP fusion protein of the hUpf1/SMG-2 partial fragment at the N-terminal side (UniProt Q92900)
[2] = tested on: hUpf1/SMG-2 fusion protein (S1096) [GST: P08515]
HA tagged hUpf1/SMG-2 = HA tagged hUpf1/SMG-2 (UniProt Q92900)
[3] = tested on: fusion protein of the 14mer peptide (control) including S15 in the p53 protein and GST [GST: P08515]
[4] = biological target: MBP fusion protein of the hUpf1/SMG-2 partial fragment at the C-terminal side (UniProt Q92900)
[5] = tested on: GST fusion protein including S1078 (14mer peptide of hUpf1/SMG-2) [GST: P08515]

6H-hSMG-1 (fusion protein of human SMG-1 partial fragment 107-3657 and His tag)
phosphorylation of substrate (in vitro kinase assay, 32P autoradiography) [1]: the fragments of hUpf1/SMG-2 at the C-terminal side and at the N-terminal side performed the role of good substrates for hSMG-1
phosphorylation of substrate (in vitro kinase assay, 32P autoradiography) [2]: the GST fusion protein including S1078 or the GST fusion protein including S1096 ... was efficiently phosphorylated by 6H-hSMG-1
phosphorylation of substrate (in vitro kinase assay, 32P autoradiography) (HA tagged hUpf1/SMG-2): purified 6H-hSMG-1 phosphorylated HA-hUpf1/SMG-2
phosphorylation of substrate (in vitro kinase assay, 32P autoradiography) [3]: the control construct encoding the SQ motif in the p53 protein was phosphorylated by hSMG-1
phosphorylation of substrate (in vitro kinase assay, 32P autoradiography) [4]: the fragments of hUpf1/SMG-2 at the C-terminal side and at the N-terminal side performed the role of good substrates for hSMG-1
phosphorylation of substrate (in vitro kinase assay, 32P autoradiography) [5]: the GST fusion protein including S1078 or the GST fusion protein including S1096 ... was efficiently phosphorylated by 6H-hSMG-1
